From the Human Domainome abundance scans (Beltran et al. 2025)
± gives the uncertainty stated by the source.

B1: Advillin, residues 785 to 819; numbered along this chain, O75366 (parent)
chain: LSEQDFVSVFGITRGQFAALPGWKQLQMKKEKGLF

Variants of: B1
Experiment: abundance fitness (aPCA) (normalised: wild type 0, dead -1); higher = more abundant; growth selection in yeast, the domain comes from the species named
Conditions: Homo sapiens

Variant	abundance fitness
LSEQDFVSVFGITRGQFAALPGWKQLQMKKEPGLF [K32P]	-0.132 ± 0.14
LSEQDFVSVFGITRGQFAALPGWKQLQMKKEQGLF [K32Q]	-0.122 ± 0.072
LSEQDFVSVFGITRGQFAALPGWKQLQMKKERGLF [K32R]	0.06 ± 0.052
LSEQDFVSVFGITRGQFAALPGWKQLQMKKESGLF [K32S]	0.015 ± 0.08
LSEQDFVSVFGITRGQFAALPGWKQLQMKKETGLF [K32T]	-0.179 ± 0.076
LSEQDFVSVFGITRGQFAALPGWKQLQMKKEVGLF [K32V]	-0.103 ± 0.073
LSEQDFVSVFGITRGQFAALPGWKQLQMKKEWGLF [K32W]	-0.365 ± 0.092
LSEQDFVSVFGITRGQFAALPGWKQLQMKKEYGLF [K32Y]	-0.298 ± 0.098
LSEQDFVSVFGITRGQFAALPGWKQLQMKKEKALF [G33A]	-0.195 ± 0.059
LSEQDFVSVFGITRGQFAALPGWKQLQMKKEKELF [G33E]	-0.032 ± 0.078
LSEQDFVSVFGITRGQFAALPGWKQLQMKKEKKLF [G33K]	-0.325 ± 0.091
LSEQDFVSVFGITRGQFAALPGWKQLQMKKEKLLF [G33L]	-0.305 ± 0.083
LSEQDFVSVFGITRGQFAALPGWKQLQMKKEKNLF [G33N]	-0.401 ± 0.1
LSEQDFVSVFGITRGQFAALPGWKQLQMKKEKPLF [G33P]	0.191 ± 0.14
LSEQDFVSVFGITRGQFAALPGWKQLQMKKEKQLF [G33Q]	0.186 ± 0.24
LSEQDFVSVFGITRGQFAALPGWKQLQMKKEKRLF [G33R]	-0.235 ± 0.071
LSEQDFVSVFGITRGQFAALPGWKQLQMKKEKSLF [G33S]	-0.108 ± 0.074
LSEQDFVSVFGITRGQFAALPGWKQLQMKKEKTLF [G33T]	-0.308 ± 0.098
LSEQDFVSVFGITRGQFAALPGWKQLQMKKEKVLF [G33V]	-0.525 ± 0.11
LSEQDFVSVFGITRGQFAALPGWKQLQMKKEKWLF [G33W]	-0.541 ± 0.08
LSEQDFVSVFGITRGQFAALPGWKQLQMKKEKGAF [L34A]	0.128 ± 0.061
LSEQDFVSVFGITRGQFAALPGWKQLQMKKEKGCF [L34C]	0.355 ± 0.11
LSEQDFVSVFGITRGQFAALPGWKQLQMKKEKGDF [L34D]	0.284 ± 0.14
LSEQDFVSVFGITRGQFAALPGWKQLQMKKEKGEF [L34E]	0.266 ± 0.08
LSEQDFVSVFGITRGQFAALPGWKQLQMKKEKGFF [L34F]	0.321 ± 0.12

Variant	abundance fitness
LSEQDFVSVFGITRGQFAALPGWKQLQMKKEKGGF [L34G]	0.147 ± 0.06
LSEQDFVSVFGITRGQFAALPGWKQLQMKKEKGHF [L34H]	0.042 ± 0.1
LSEQDFVSVFGITRGQFAALPGWKQLQMKKEKGKF [L34K]	-0.003 ± 0.064
LSEQDFVSVFGITRGQFAALPGWKQLQMKKEKGMF [L34M]	0.029 ± 0.084
LSEQDFVSVFGITRGQFAALPGWKQLQMKKEKGNF [L34N]	0.027 ± 0.088
LSEQDFVSVFGITRGQFAALPGWKQLQMKKEKGPF [L34P]	0.033 ± 0.083
LSEQDFVSVFGITRGQFAALPGWKQLQMKKEKGQF [L34Q]	0.098 ± 0.078
LSEQDFVSVFGITRGQFAALPGWKQLQMKKEKGRF [L34R]	-0.112 ± 0.058
LSEQDFVSVFGITRGQFAALPGWKQLQMKKEKGSF [L34S]	0.177 ± 0.069
LSEQDFVSVFGITRGQFAALPGWKQLQMKKEKGTF [L34T]	0.143 ± 0.064
LSEQDFVSVFGITRGQFAALPGWKQLQMKKEKGVF [L34V]	-0.122 ± 0.069
LSEQDFVSVFGITRGQFAALPGWKQLQMKKEKGWF [L34W]	0.019 ± 0.063
LSEQDFVSVFGITRGQFAALPGWKQLQMKKEKGLA [F35A]	-0.334 ± 0.29
LSEQDFVSVFGITRGQFAALPGWKQLQMKKEKGLC [F35C]	0.179 ± 0.086
LSEQDFVSVFGITRGQFAALPGWKQLQMKKEKGLE [F35E]	0.129 ± 0.094
LSEQDFVSVFGITRGQFAALPGWKQLQMKKEKGLI [F35I]	0.312 ± 0.2
LSEQDFVSVFGITRGQFAALPGWKQLQMKKEKGLK [F35K]	-1 ± 0.38
LSEQDFVSVFGITRGQFAALPGWKQLQMKKEKGLL [F35L]	0.197 ± 0.14
LSEQDFVSVFGITRGQFAALPGWKQLQMKKEKGLN [F35N]	-0.478 ± 0.43
LSEQDFVSVFGITRGQFAALPGWKQLQMKKEKGLP [F35P]	0.054 ± 0.084
LSEQDFVSVFGITRGQFAALPGWKQLQMKKEKGLQ [F35Q]	-0.071 ± 0.3
LSEQDFVSVFGITRGQFAALPGWKQLQMKKEKGLR [F35R]	0.126 ± 0.11
LSEQDFVSVFGITRGQFAALPGWKQLQMKKEKGLS [F35S]	0.355 ± 0.18
LSEQDFVSVFGITRGQFAALPGWKQLQMKKEKGLV [F35V]	0.141 ± 0.097
LSEQDFVSVFGITRGQFAALPGWKQLQMKKEKGLW [F35W]	-0.13 ± 0.17
